Where only a bound is given, the exact number is not on record here.

First the molecules themselves.
B1: bH1 Fab H3 variant 14_0130 (Fab, V domains shown)
VH: EVQLVESGGGLVQPGGSLRLSCAASGFNIKDTYIHWVRQAPGKGLEWVARIYPTNGYTRYADSVKGRFTISADTSKNTAYLQMNSLRAEDTAVYYCAKLGIGYYYYGMDVWGQGTLVTVSS
VL: DIQMTQSPSSLSASVGDRVTITCRASQDIPRSISGYVAWYQQKPGKAPKLLIYWGSYLYSGVPSRFSGSGSGTDFTLTISSLQPEDFATYYCQQHYTTPPTFGQGTKVEIK
notes: also in PDB 7KF1; also called design 14_0130; source: CHO-3E7, co-transfected, purified from supernatant (HisTrap IMAC, SEC Superdex-200)
B2: bH1 Fab H3 variant 13_0346 (Fab, V domains shown)
VH: EVQLVESGGGLVQPGGSLRLSCAASGFNIKDTYIHWVRQAPGKGLEWVARIYPTNGYTRYADSVKGRFTISADTSKNTAYLQMNSLRAEDTAVYYCARGGSFYYYYMDVWGQGTLVTVSS
VL: DIQMTQSPSSLSASVGDRVTITCRASQDIPRSISGYVAWYQQKPGKAPKLLIYWGSYLYSGVPSRFSGSGSGTDFTLTISSLQPEDFATYYCQQHYTTPPTFGQGTKVEIK
notes: also in PDB 7KF0; also called design 13_0346; source: CHO-3E7, co-transfected, purified from supernatant (HisTrap IMAC, SEC Superdex-200)
B3: bH1 Fab H3 variant 14_0905 (Fab, V domains shown)
VH: EVQLVESGGGLVQPGGSLRLSCAASGFNIKDTYIHWVRQAPGKGLEWVARIYPTNGYTRYADSVKGRFTISADTSKNTAYLQMNSLRAEDTAVYYCVRGGYLRDYYGMDVWGQGTLVTVSS
VL: DIQMTQSPSSLSASVGDRVTITCRASQDIPRSISGYVAWYQQKPGKAPKLLIYWGSYLYSGVPSRFSGSGSGTDFTLTISSLQPEDFATYYCQQHYTTPPTFGQGTKVEIK
notes: source: CHO-3E7, co-transfected, purified from supernatant (HisTrap IMAC, SEC Superdex-200)
B4: parental bH1 Fab (Fab, V domains shown)
VH: not shown
VL: DIQMTQSPSSLSASVGDRVTITCRASQDIPRSISGYVAWYQQKPGKAPKLLIYWGSYLYSGVPSRFSGSGSGTDFTLTISSLQPEDFATYYCQQHYTTPPTFGQGTKVEIK
notes: heavy chain of the bH1 Fab; light chain of the bH1 Fab; also called bH1 antibody; parental antibody; source: CHO-3E7, co-transfected, purified from supernatant (HisTrap IMAC, SEC Superdex-200)
B5: bH1 Fab H3 variant 16_0460 (Fab, V domains shown)
VH: EVQLVESGGGLVQPGGSLRLSCAASGFNIKDTYIHWVRQAPGKGLEWVARIYPTNGYTRYADSVKGRFTISADTSKNTAYLQMNSLRAEDTAVYYCARPSGGSRSWLYYFDYWGQGTLVTVSS
VL: DIQMTQSPSSLSASVGDRVTITCRASQDIPRSISGYVAWYQQKPGKAPKLLIYWGSYLYSGVPSRFSGSGSGTDFTLTISSLQPEDFATYYCQQHYTTPPTFGQGTKVEIK
notes: also called design 16_0460; source: CHO-3E7, co-transfected, purified from supernatant (HisTrap IMAC, SEC Superdex-200)
B6: bH1 Fab H3 variant 14_0688 (Fab, V domains shown)
VH: EVQLVESGGGLVQPGGSLRLSCAASGFNIKDTYIHWVRQAPGKGLEWVARIYPTNGYTRYADSVKGRFTISADTSKNTAYLQMNSLRAEDTAVYYCARSGRDAYNYYFDSWGQGTLVTVSS
VL: DIQMTQSPSSLSASVGDRVTITCRASQDIPRSISGYVAWYQQKPGKAPKLLIYWGSYLYSGVPSRFSGSGSGTDFTLTISSLQPEDFATYYCQQHYTTPPTFGQGTKVEIK
notes: as for B3
B7: bH1 Fab H3 variant 12_0327 (Fab, V domains shown)
VH: EVQLVESGGGLVQPGGSLRLSCAASGFNIKDTYIHWVRQAPGKGLEWVARIYPTNGYTRYADSVKGRFTISADTSKNTAYLQMNSLRAEDTAVYYCARGRKYSSSFDYWGQGTLVTVSS
VL: DIQMTQSPSSLSASVGDRVTITCRASQDIPRSISGYVAWYQQKPGKAPKLLIYWGSYLYSGVPSRFSGSGSGTDFTLTISSLQPEDFATYYCQQHYTTPPTFGQGTKVEIK
notes: also in PDB 7KF2; also called design 12_0327; source: CHO-3E7, co-transfected, purified from supernatant (HisTrap IMAC, SEC Superdex-200)
B8: bH1 Fab H3 variant 16_0102 (Fab, V domains shown)
VH: EVQLVESGGGLVQPGGSLRLSCAASGFNIKDTYIHWVRQAPGKGLEWVARIYPTNGYTRYADSVKGRFTISADTSKNTAYLQMNSLRAEDTAVYYCAKGWEGTTVTLTPVDYWGQGTLVTVSS
VL: DIQMTQSPSSLSASVGDRVTITCRASQDIPRSISGYVAWYQQKPGKAPKLLIYWGSYLYSGVPSRFSGSGSGTDFTLTISSLQPEDFATYYCQQHYTTPPTFGQGTKVEIK
notes: as for B3
B9: bH1 Fab H3 variant 14_0490 (Fab, V domains shown)
VH: EVQLVESGGGLVQPGGSLRLSCAASGFNIKDTYIHWVRQAPGKGLEWVARIYPTNGYTRYADSVKGRFTISADTSKNTAYLQMNSLRAEDTAVYYCARGNEAGYYYGMDVWGQGTLVTVSS
VL: DIQMTQSPSSLSASVGDRVTITCRASQDIPRSISGYVAWYQQKPGKAPKLLIYWGSYLYSGVPSRFSGSGSGTDFTLTISSLQPEDFATYYCQQHYTTPPTFGQGTKVEIK
notes: as for B3
B10: bH1 Fab H3 variant 14_0480 (Fab, V domains shown)
VH: EVQLVESGGGLVQPGGSLRLSCAASGFNIKDTYIHWVRQAPGKGLEWVARIYPTNGYTRYADSVKGRFTISADTSKNTAYLQMNSLRAEDTAVYYCARGLERSGNYYLDYWGQGTLVTVSS
VL: DIQMTQSPSSLSASVGDRVTITCRASQDIPRSISGYVAWYQQKPGKAPKLLIYWGSYLYSGVPSRFSGSGSGTDFTLTISSLQPEDFATYYCQQHYTTPPTFGQGTKVEIK
notes: as for B3
B11: bH1 Fab H3 variant 14_0622 (Fab, V domains shown)
VH: EVQLVESGGGLVQPGGSLRLSCAASGFNIKDTYIHWVRQAPGKGLEWVARIYPTNGYTRYADSVKGRFTISADTSKNTAYLQMNSLRAEDTAVYYCARNGGDSYSGYFQHWGQGTLVTVSS
VL: DIQMTQSPSSLSASVGDRVTITCRASQDIPRSISGYVAWYQQKPGKAPKLLIYWGSYLYSGVPSRFSGSGSGTDFTLTISSLQPEDFATYYCQQHYTTPPTFGQGTKVEIK
notes: as for B3
B12: bH1 Fab H3 variant 14_0129 (Fab, V domains shown)
VH: EVQLVESGGGLVQPGGSLRLSCAASGFNIKDTYIHWVRQAPGKGLEWVARIYPTNGYTRYADSVKGRFTISADTSKNTAYLQMNSLRAEDTAVYYCAKLGGQGSYYHFDYWGQGTLVTVSS
VL: DIQMTQSPSSLSASVGDRVTITCRASQDIPRSISGYVAWYQQKPGKAPKLLIYWGSYLYSGVPSRFSGSGSGTDFTLTISSLQPEDFATYYCQQHYTTPPTFGQGTKVEIK
notes: as for B3
B13: bH1 Fab H3 variant 14_0472 (Fab, V domains shown)
VH: EVQLVESGGGLVQPGGSLRLSCAASGFNIKDTYIHWVRQAPGKGLEWVARIYPTNGYTRYADSVKGRFTISADTSKNTAYLQMNSLRAEDTAVYYCARGIAVAGAYYFDYWGQGTLVTVSS
VL: DIQMTQSPSSLSASVGDRVTITCRASQDIPRSISGYVAWYQQKPGKAPKLLIYWGSYLYSGVPSRFSGSGSGTDFTLTISSLQPEDFATYYCQQHYTTPPTFGQGTKVEIK
notes: as for B3
B14: bH1 Fab H3 variant 14_0822 (Fab, V domains shown)
VH: EVQLVESGGGLVQPGGSLRLSCAASGFNIKDTYIHWVRQAPGKGLEWVARIYPTNGYTRYADSVKGRFTISADTSKNTAYLQMNSLRAEDTAVYYCGRSGPRLGMYYFDFWGQGTLVTVSS
VL: DIQMTQSPSSLSASVGDRVTITCRASQDIPRSISGYVAWYQQKPGKAPKLLIYWGSYLYSGVPSRFSGSGSGTDFTLTISSLQPEDFATYYCQQHYTTPPTFGQGTKVEIK
notes: as for B3
B15: bH1 Fab H3 variant 15_0485 (Fab, V domains shown)
VH: EVQLVESGGGLVQPGGSLRLSCAASGFNIKDTYIHWVRQAPGKGLEWVARIYPTNGYTRYADSVKGRFTISADTSKNTAYLQMNSLRAEDTAVYYCARHGVRGYYYYYMDVWGQGTLVTVSS
VL: DIQMTQSPSSLSASVGDRVTITCRASQDIPRSISGYVAWYQQKPGKAPKLLIYWGSYLYSGVPSRFSGSGSGTDFTLTISSLQPEDFATYYCQQHYTTPPTFGQGTKVEIK
notes: as for B3
B16: bH1 Fab H3 variant 16_0325 (Fab, V domains shown)
VH: EVQLVESGGGLVQPGGSLRLSCAASGFNIKDTYIHWVRQAPGKGLEWVARIYPTNGYTRYADSVKGRFTISADTSKNTAYLQMNSLRAEDTAVYYCARGGAVAGTGVYYFDYWGQGTLVTVSS
VL: DIQMTQSPSSLSASVGDRVTITCRASQDIPRSISGYVAWYQQKPGKAPKLLIYWGSYLYSGVPSRFSGSGSGTDFTLTISSLQPEDFATYYCQQHYTTPPTFGQGTKVEIK
notes: also in PDB 7KEZ; also called design 16_0325; source: CHO-3E7, co-transfected, purified from supernatant (HisTrap IMAC, SEC Superdex-200)

In the first assay the target is T1, Full-length isoform 165 of human VEGF-A (Homo sapiens, VEGF-A isoform 165, UniProt P15692-4).
T1 construct: VEGF-A isoform 165, human; Immobilised by amine coupling for SPR; Made in HEK cells, so probably the secreted 165-residue form without signal peptide (surmise); source: HEK, recombinant, purified
T1 sequence (P15692 other isoform, or with tags, fused parts or gaps): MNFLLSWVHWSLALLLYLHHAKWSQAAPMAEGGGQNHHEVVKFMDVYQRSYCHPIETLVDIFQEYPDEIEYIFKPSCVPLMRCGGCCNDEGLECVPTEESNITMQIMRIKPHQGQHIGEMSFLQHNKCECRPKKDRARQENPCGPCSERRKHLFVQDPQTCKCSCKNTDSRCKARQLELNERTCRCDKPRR
The experiment in a line: SPR; Biacore T200, 25 °C, PBS with 0.05% Tween 20 and 3.4 mM EDTA; VEGF-A amine-coupled to a CM-5 chip; Fab injected in single cycle kinetics with five increasing concentrations; double referenced; fit to a 1:1 Langmuir binding model. The following applies: both partners purified. A general note: SPR reads the build-up and loss of mass on a sensor chip optically.
The Kd is a measure of binding affinity in units of concentration. Lower therefore signals higher affinity. Turning to B1, the Kd came to 2.8 µM.

The molecule B2 gave a Kd of 0.08 µM. Against the preceding molecule, the Kd is about 35-fold lower. The same measure, in the same setting: the same measure for B3: 5 µM. The same measure, in the same setting: the same measure for B4: 0.1 µM; for B5: 4.5 µM.

The molecule B6 gave a Kd of 3.6 µM. Turning to B7, the Kd was 1.6 µM. Turning to B8, the Kd came out at 50 µM.

B9 displayed a Kd of 3.59 µM. For the molecule B10, the Kd was 2.72 µM. Molecule B11 registered a Kd of 4.97 µM.

B12 showed an equilibrium dissociation constant (Kd) of 3.48 µM. Same read-out and setting: then B13, with 59 µM. On to B14, for which the Kd is more than 50 µM and the binding result is “no binding (tested: > 50,000 nM)”.

With B15, the Kd was determined as 0.31 µM. In other words, the sub-micromolar range.

In the next assay the target is T2, VEGF antigen as co-crystallised with the bH1-Fab H3 variants (Homo sapiens, VEGF-A residues 1-110 of …).
T2 construct: VEGF-A, human
T2 chain: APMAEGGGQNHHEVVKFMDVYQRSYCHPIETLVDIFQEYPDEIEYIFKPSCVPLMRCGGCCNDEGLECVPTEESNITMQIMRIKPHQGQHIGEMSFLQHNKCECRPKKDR
The experiment in a line: crystal structure; co-crystallization of bH1-Fab H3 variants with the VEGF antigen and X-ray diffraction; methods in Shi et al. (in preparation). Particulars: both partners purified.
B1: the binding result is on record as “binds”. On to B2, for which the binding result is given as “binds”. On the same count and under the same terms, then B16, with “binds”; and B7, with “binds”.

The record behind these values is paper PMC8560851 (Scientific Reports, 2021).
